B1: RdFucI (Klebsiella planticola) (protein)
chain: MKRISLPKIGIRPVIDGRRMGVRESLEEQTMNMAKATAALISEKLRHASGAQIECVIADTCIAGMAESAACEEKFSSQNVGVTITVTPCWCYGSETIDMDPLRPKAIWGFNGTERPGAVYLAAALAAHSQKGIPAFSIYGHDVQDADDTTIPADVEEKLLRFARAGLAVASMKGKSYLSVGGVSMGIAGSIVDHNFFESWLGMKVQAVDMTELRRRIDQKIYDEVELEMALAWADKNFRYGEDQNAQHYKRDEEQSRAVLKESLLMAMCIRDMMQGNKKLAEKGLVEESLGYNAIAAGFQGQRHWTDQYPNGDTAEALLNSSFDWNGVREPFVVATENDSLNGVAMLMGHQLTGTAQVFADVRTYWSPDAVERVTGQPLTGLAEHGIIHLINSGSAALDGSCKQRDEEGKPTMKPHWEISQKEADACLAATEWCPAIHEYFRGGGYSSRFLTEGGVPFTMTRVNIIKGLGPVLQIAEGWSVELPKAMHDQLDARTNSTWPTTWFAPRLTGKGPFADVYSVMANWGANHGVLTIGHVGADFITLAAMLRIPVCMHNVEEGKIYRPSSWSAHGMDTEGQDYRACQNYGPLYKR
notes: N-terminal His6 tag (pET28a, NdeI/EcoRI), E. coli BL21(DE3); tag removal not mentioned; homohexamer

Tests used:
[1] = molecular target: L-fucose isomerase from Raoultella sp. KDH14 (RdFucI) (Raoultella sp. KDH14); assay: crystal structure; six subunits in the asymmetric unit; crystals grown in 0.1 M HEPES pH 7.5, 20% (w/v) PEG 10,000 at 20 °C; also soaked with 10 mM Mn2+
[2] = molecular target: L-fucose isomerase from Raoultella sp. KDH14 (RdFucI) (Raoultella sp. KDH14); assay: SEC; analytical size-exclusion chromatography, Superdex 200 10/300 GL, 10 mM Tris-HCl, 200 mM NaCl, pH 8.0; calibrated with standard proteins
[3] = substrate: O=C(CO)[C@H](O)[C@H](O)CO; assay: isomerase kinetics, D-ribulose to D-arabinose; assay type: biochemical, Klebsiella planticola; conditions: 1 mM MnCl2 (general assay); pH and temperature of the kinetics not stated in main text; pH 10.0; 40.0 °C
Procedure: isomerase kinetics, D-ribulose to D-arabinose on RdFucI | Kinetic parameters were determined using L-fuculose and D-ribulose as the substrates

Molecule | stoichiometry N [1] | stoichiometry N [2] | Km [3] | kcat [3] | kcat/Km [3]
L-fucose isomerase from Raoultella sp. KDH14 (RdFucI) (enzyme) | 6 | 6 |  |  | 
B1 |  |  | 13.7 ± 1.1 mM | 138 ± 5.69 s⁻¹ | 10100 ± 493 M⁻¹ s⁻¹
